# B1: RSPO2 furin domain with a C-terminal His tag (R2Fu-His), Q6UXX9 37-143 (domain or fragment)
# chain: NPICKGCLSCSKDNGCSRCQQKLFFFLRREGMRQYGECLHSCPSGYYGHRAPDMNRCARCRIENCDSCFSKDFCTKCKVGFYLHRGRCFDECPDGFAPLEETMECVE
# Target: LGR4 co-expressed with ZNRF3ΔRING on HEK293T cells (LGR4-E3 ligase complex), Q9BXB1
binder,measurement,value
B1,"EC50 of TOPFlash (Wnt/β-catenin reporter) activity in STF cells, which endogenously express LGR4, RNF43 and ZNRF3",0.79 nM
